One substance from US20060239990 can be followed below.

For the data set, the target named is GST-Stat3 fusion protein (UniProt P42227).
Chain of GST-Stat3 fusion protein (P42227 whole entry, the tested form may be a part): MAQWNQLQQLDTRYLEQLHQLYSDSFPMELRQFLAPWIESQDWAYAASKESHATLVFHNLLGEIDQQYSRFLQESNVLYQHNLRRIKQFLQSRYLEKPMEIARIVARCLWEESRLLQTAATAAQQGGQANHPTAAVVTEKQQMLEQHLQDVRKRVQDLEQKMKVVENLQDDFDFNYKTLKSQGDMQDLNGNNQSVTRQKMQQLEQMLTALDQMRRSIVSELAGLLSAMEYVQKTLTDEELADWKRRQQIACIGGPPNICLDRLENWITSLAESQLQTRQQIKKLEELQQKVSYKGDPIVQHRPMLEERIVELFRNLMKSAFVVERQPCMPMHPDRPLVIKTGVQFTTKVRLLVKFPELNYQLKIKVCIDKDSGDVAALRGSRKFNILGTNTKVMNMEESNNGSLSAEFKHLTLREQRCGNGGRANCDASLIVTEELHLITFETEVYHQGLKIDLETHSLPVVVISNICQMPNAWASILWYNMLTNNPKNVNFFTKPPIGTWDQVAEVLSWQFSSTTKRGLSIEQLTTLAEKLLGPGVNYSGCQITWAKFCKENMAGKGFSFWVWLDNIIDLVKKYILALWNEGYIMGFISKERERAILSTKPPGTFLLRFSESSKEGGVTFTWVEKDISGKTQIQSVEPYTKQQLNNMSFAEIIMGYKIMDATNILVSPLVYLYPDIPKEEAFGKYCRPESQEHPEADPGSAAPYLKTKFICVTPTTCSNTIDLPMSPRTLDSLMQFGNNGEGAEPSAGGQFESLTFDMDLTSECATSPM

“mutated mouse PRMT2-Flag lacking functional Ado-Met domain (alanine for 145-GCGTG-149)”: the “in vitro methylation with [3H]-AdoMet” value is “transfection of neither vector alone nor mutated PRMT2-Flag cDNA induced methylation of GST-Stat3 (FIG. 20A, lanes 4 and 5)”.
